In patent US20210269545A1 one finds EC50 and Max MFI data, which are given here for two substances.

The target of assay [1] is CD38 on cells (human) (UniProt P28907). Description: flow cytometry, Raji cells expressing CD19 and CD38 (negative control).
A further assay deals with CD19 on cells (human) (UniProt P15391). The description is as above.
For assay [2], the target named is CD38 on cells (human) (UniProt P28907). As to the kind of experiment: flow cytometry, Raji cells expressing CD19 and CD38.
The target is the same in assay [3]. As to the kind of experiment: flow cytometry, Raji cells; adjusted fit with the top asymptote fixed at about the maximum response of Darzalex.
Assay [4] shares this target. As to the kind of experiment: flow cytometry, Raji cells expressing CD19 and CD38. The source holds these as a separate data set. On the technique in general: In flow cytometry, cells or beads pass a laser one at a time.

CD19 on cells (human), sequence (P15391 20-556): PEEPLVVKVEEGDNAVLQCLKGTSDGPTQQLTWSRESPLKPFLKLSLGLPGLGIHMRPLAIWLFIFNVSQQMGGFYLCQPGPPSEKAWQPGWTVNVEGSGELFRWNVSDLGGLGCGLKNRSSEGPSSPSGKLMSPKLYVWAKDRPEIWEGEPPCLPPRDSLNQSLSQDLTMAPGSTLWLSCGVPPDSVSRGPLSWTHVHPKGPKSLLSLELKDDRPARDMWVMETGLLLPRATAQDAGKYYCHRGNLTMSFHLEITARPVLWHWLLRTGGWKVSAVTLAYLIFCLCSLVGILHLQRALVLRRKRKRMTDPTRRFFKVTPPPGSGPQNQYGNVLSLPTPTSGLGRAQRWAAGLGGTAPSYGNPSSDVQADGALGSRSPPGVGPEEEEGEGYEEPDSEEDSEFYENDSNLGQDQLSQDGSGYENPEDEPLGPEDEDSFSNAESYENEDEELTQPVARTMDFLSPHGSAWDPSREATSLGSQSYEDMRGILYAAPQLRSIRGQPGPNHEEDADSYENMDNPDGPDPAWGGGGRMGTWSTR

Usually EC50 stands for the concentration at which the effect is half-maximal. Turning to IgG1 isotype control (antibody), in the assay with CD38 on cells (human) [1], the half-maximal effective concentration (EC50) is 4620 µg/mL and the Max MFI was found to be 38700 MFI. Besides, in the assay with CD19 on cells (human), the EC50 amounted to 4620 µg/mL and the Max MFI was 38700 MFI.
On to Darzalex (antibody), for which the EC50 with CD38 on cells (human) [2] was 0.195 µg/mL; in the assay with CD38 on cells (human) [3], 1.27 nM; with CD38 on cells (human) [4], 1.27 nM. The substance further came in with a Max MFI with CD38 on cells (human) [2] of 4.02e+06 MFI.
